Test results: the RNAGym collection of RNA variant scans (doi:10.1021/acssynbio.7b00057)

B1: Pistol ribozyme (parent)
chain: GGGUCGUUGUUCCAUAAUCGCGUGGAUAUGGCACGCAAGUUUCUACCGGGCACCGUAAAUGUCCGACUGGAGCCGUUCGGGCGGCUAUAAACAGACCUCAGGCCCGAAGCGUGGCGGCACCUGCCGCCGGUGGUAAAAAAGAUCGGAAGAGCACACGUCU

Variants of: B1
Test: aptazyme ON/OFF ratio, guanine; higher = stronger switching; co-transcriptional cleavage with and without guanine

Variant | aptazyme ON/OFF ratio
GGGUCGCCGCUGCAUAAUCGCGUGGAUAUGGCACGCAAGUUUCUACCGGGCACCGUAAAUGUCCGACUGGAGCCGUUCGGGCGGCUAUAAACAGACCUCAGGCCCGAAGCGUGGCGGCACCUGCCGCCGGUGGUAAAAAAGAUCGGAAGAGCACACGUCU | 1.16
GGGUCGCCGCUACAUAAUCGCGUGGAUAUGGCACGCAAGUUUCUACCGGGCACCGUAAAUGUCCGACUGGAGCCGUUCGGGCGGCUAUAAACAGACCUCAGGCCCGAAGCGUGGCGGCACCUGCCGCCGGUGGUAAAAAAGAUCGGAAGAGCACACGUCU | 1.39
GGGUCGCCGCUUCAUAAUCGCGUGGAUAUGGCACGCAAGUUUCUACCGGGCACCGUAAAUGUCCGACUGGAGCCGUUCGGGCGGCUAUAAACAGACCUCAGGCCCGAAGCGUGGCGGCACCUGCCGCCGGUGGUAAAAAAGAUCGGAAGAGCACACGUCU | 1.36
GGGUCGCCGCUCCAUAAUCGCGUGGAUAUGGCACGCAAGUUUCUACCGGGCACCGUAAAUGUCCGACUGGAGCCGUUCGGGCGGCUAUAAACAGACCUCAGGCCCGAAGCGUGGCGGCACCUGCCGCCGGUGGUAAAAAAGAUCGGAAGAGCACACGUCU | 1.26
GGGUCGCCGCAAGAUAAUCGCGUGGAUAUGGCACGCAAGUUUCUACCGGGCACCGUAAAUGUCCGACUGGAGCCGUUCGGGCGGCUAUAAACAGACCUCAGGCCCGAAGCGUGGCGGCACCUGCCGCCGGUGGUAAAAAAGAUCGGAAGAGCACACGUCU | 1.17
GGGUCGCCGCAAAAUAAUCGCGUGGAUAUGGCACGCAAGUUUCUACCGGGCACCGUAAAUGUCCGACUGGAGCCGUUCGGGCGGCUAUAAACAGACCUCAGGCCCGAAGCGUGGCGGCACCUGCCGCCGGUGGUAAAAAAGAUCGGAAGAGCACACGUCU | 1.33
GGGUCGCCGCAAUAUAAUCGCGUGGAUAUGGCACGCAAGUUUCUACCGGGCACCGUAAAUGUCCGACUGGAGCCGUUCGGGCGGCUAUAAACAGACCUCAGGCCCGAAGCGUGGCGGCACCUGCCGCCGGUGGUAAAAAAGAUCGGAAGAGCACACGUCU | 1.45
GGGUCGCCGAGGAAUAAUCGCGUGGAUAUGGCACGCAAGUUUCUACCGGGCACCGUAAAUGUCCGACUGGAGCCGUUCGGGCGGCUAUAAACAGACCUCAGGCCCGAAGCGUGGCGGCACCUGCCGCCGGUGGUAAAAAAGAUCGGAAGAGCACACGUCU | 1.25
GGGUCGCCGAGGUAUAAUCGCGUGGAUAUGGCACGCAAGUUUCUACCGGGCACCGUAAAUGUCCGACUGGAGCCGUUCGGGCGGCUAUAAACAGACCUCAGGCCCGAAGCGUGGCGGCACCUGCCGCCGGUGGUAAAAAAGAUCGGAAGAGCACACGUCU | 1.14
GGGUCGCCGAGGGAUAAUCGCGUGGAUAUGGCACGCAAGUUUCUACCGGGCACCGUAAAUGUCCGACUGGAGCCGUUCGGGCGGCUAUAAACAGACCUCAGGCCCGAAGCGUGGCGGCACCUGCCGCCGGUGGUAAAAAAGAUCGGAAGAGCACACGUCU | 1.22
GGGUCGCCGCUCUAUAAUCGCGUGGAUAUGGCACGCAAGUUUCUACCGGGCACCGUAAAUGUCCGACUGGAGCCGUUCGGGCGGCUAUAAACAGACCUCAGGCCCGAAGCGUGGCGGCACCUGCCGCCGGUGGUAAAAAAGAUCGGAAGAGCACACGUCU | 2.08
GGGUCGCCGCUCAAUAAUCGCGUGGAUAUGGCACGCAAGUUUCUACCGGGCACCGUAAAUGUCCGACUGGAGCCGUUCGGGCGGCUAUAAACAGACCUCAGGCCCGAAGCGUGGCGGCACCUGCCGCCGGUGGUAAAAAAGAUCGGAAGAGCACACGUCU | 1.24
GGGUCGCCGCUCGAUAAUCGCGUGGAUAUGGCACGCAAGUUUCUACCGGGCACCGUAAAUGUCCGACUGGAGCCGUUCGGGCGGCUAUAAACAGACCUCAGGCCCGAAGCGUGGCGGCACCUGCCGCCGGUGGUAAAAAAGAUCGGAAGAGCACACGUCU | 1.24
GGGUCGCCGCAACAUAAUCGCGUGGAUAUGGCACGCAAGUUUCUACCGGGCACCGUAAAUGUCCGACUGGAGCCGUUCGGGCGGCUAUAAACAGACCUCAGGCCCGAAGCGUGGCGGCACCUGCCGCCGGUGGUAAAAAAGAUCGGAAGAGCACACGUCU | 1.31
GGGUCGCCGAGAAAUAAUCGCGUGGAUAUGGCACGCAAGUUUCUACCGGGCACCGUAAAUGUCCGACUGGAGCCGUUCGGGCGGCUAUAAACAGACCUCAGGCCCGAAGCGUGGCGGCACCUGCCGCCGGUGGUAAAAAAGAUCGGAAGAGCACACGUCU | 1.06
GGGUCGCCGAGAGAUAAUCGCGUGGAUAUGGCACGCAAGUUUCUACCGGGCACCGUAAAUGUCCGACUGGAGCCGUUCGGGCGGCUAUAAACAGACCUCAGGCCCGAAGCGUGGCGGCACCUGCCGCCGGUGGUAAAAAAGAUCGGAAGAGCACACGUCU | 1.11
GGGUCGCCGAGAUAUAAUCGCGUGGAUAUGGCACGCAAGUUUCUACCGGGCACCGUAAAUGUCCGACUGGAGCCGUUCGGGCGGCUAUAAACAGACCUCAGGCCCGAAGCGUGGCGGCACCUGCCGCCGGUGGUAAAAAAGAUCGGAAGAGCACACGUCU | 1.12
GGGUCGCCGCACCAUAAUCGCGUGGAUAUGGCACGCAAGUUUCUACCGGGCACCGUAAAUGUCCGACUGGAGCCGUUCGGGCGGCUAUAAACAGACCUCAGGCCCGAAGCGUGGCGGCACCUGCCGCCGGUGGUAAAAAAGAUCGGAAGAGCACACGUCU | 1.9
